Test results taken from the supplement of paper PMC11136658.

Test system: peptide library, one residue held at a place counted from the Y acceptor
Experiment: relative phosphorylation of the sub-library (ratio to the mean residue at this position); higher = residue favoured
Procedure, shortened: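 Purified recombinant kinases were given 50 μM ATP with γ-32P-ATP and biotinylated Tyr-centred peptide library mixtures for 90 min in 384-well plates. Peptides bound to streptavidin membranes were rinsed and quantified by phosphorimaging, and intensities were normalized per position by the sum of the 18 randomized residues (16 with the Ser/Thr-free library) and multiplied by that number. The reported values are phosphorylation relative to the mean randomized residue.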

PTK2B, construct: aa360-690, human, sequence (Q14289 360-690, looked up): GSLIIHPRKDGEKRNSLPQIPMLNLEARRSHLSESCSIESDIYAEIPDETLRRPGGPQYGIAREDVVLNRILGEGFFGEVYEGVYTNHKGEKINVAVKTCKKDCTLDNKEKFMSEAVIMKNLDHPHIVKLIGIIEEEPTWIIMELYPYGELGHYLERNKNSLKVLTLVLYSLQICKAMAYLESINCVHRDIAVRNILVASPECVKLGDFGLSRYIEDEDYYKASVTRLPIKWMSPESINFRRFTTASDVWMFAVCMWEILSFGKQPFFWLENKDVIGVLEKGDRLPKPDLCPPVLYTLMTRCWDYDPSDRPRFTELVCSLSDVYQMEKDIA

PTK2B, construct: aa360-690, human (from UniProt Q14289)
relative phosphorylation
Conditions	at +1	at +2	at +3	at +4	at +5	at -1	at -2	at -3	at -4	at -5
A fixed	2.28	0.739	0.756	0.904	1.08	0.722	1.03	1.03	1.15	1.03
D fixed	1.55	0.792	0.312	0.86	0.799	0.478	1.34	1.28	0.976	0.952
E fixed	2.04	1.29	0.341	0.961	0.887	0.489	1.54	1.52	0.85	0.801
F fixed	0.834	1.85	1.42	1.04	0.992	1.06	0.634	0.986	1.29	1.07
G fixed	1.1	0.402	0.58	1.02	1.31	0.297	1.06	1.07	1.23	1.14
H fixed	0.593	0.657	0.685	1.05	0.966	0.719	0.953	0.965	1.01	1.05
I fixed	1.12	1.56	2.46	0.896	0.903	4.36	1.02	0.657	0.851	0.978
K fixed	0.171	0.444	0.228	0.762	0.731	0.29	0.703	0.866	0.915	1.13
L fixed	0.499	1.68	1.61	0.925	0.92	1.99	1.02	0.816	1.07	1.04
M fixed	0.908	1.13	1.11	1.15	1	0.811	0.729	0.903	0.939	1.08
N fixed	0.297	0.815	0.397	0.711	0.838	0.63	1.13	1.18	0.937	1.02
P fixed	0.374	0.702	2.31	1.08	1.72	0.488	1.15	0.97	1.14	1.01
Q fixed	0.788	0.679	0.365	0.992	0.758	0.443	1.09	0.895	0.918	0.896
R fixed	0.215	0.603	0.298	0.938	0.912	0.374	0.748	0.923	0.969	1.16
S fixed	1.15	0.82	0.669	0.981	1.1	0.534	1.08	1.27	0.927	0.98
T fixed	1.02	0.823	0.794	0.875	1.09	0.935	0.962	1.02	0.679	0.825
V fixed	2.02	1.27	2.28	1.09	0.926	2.67	1.2	0.704	0.86	0.926
W fixed	1.04	1.75	1.4	1.77	1.07	0.714	0.613	0.95	1.3	0.917
pThr fixed	3.7	2.29	0.44	0.84	0.752	0.624	1.09	0.878	0.728	0.817
pTyr fixed	2.13	6.16	0.885	1.48	0.901	1.53	1.17	1.32	0.964	0.94
